Test results published in patent US20240309103A1 (Regeneron, published 2024).

Experiments:
[1] = biological target: T1, human NPR1 on HEK293/hNPR1.myc.DDK cells with 10 nM hANP (NPR1-ANP complex) (human, UniProt P01160 124-151); experiment: ECL cell binding (MSD), +10 nM hANP
T1 construct: also called NPR1-ANP Complex on the Cell Surface
T1 sequence: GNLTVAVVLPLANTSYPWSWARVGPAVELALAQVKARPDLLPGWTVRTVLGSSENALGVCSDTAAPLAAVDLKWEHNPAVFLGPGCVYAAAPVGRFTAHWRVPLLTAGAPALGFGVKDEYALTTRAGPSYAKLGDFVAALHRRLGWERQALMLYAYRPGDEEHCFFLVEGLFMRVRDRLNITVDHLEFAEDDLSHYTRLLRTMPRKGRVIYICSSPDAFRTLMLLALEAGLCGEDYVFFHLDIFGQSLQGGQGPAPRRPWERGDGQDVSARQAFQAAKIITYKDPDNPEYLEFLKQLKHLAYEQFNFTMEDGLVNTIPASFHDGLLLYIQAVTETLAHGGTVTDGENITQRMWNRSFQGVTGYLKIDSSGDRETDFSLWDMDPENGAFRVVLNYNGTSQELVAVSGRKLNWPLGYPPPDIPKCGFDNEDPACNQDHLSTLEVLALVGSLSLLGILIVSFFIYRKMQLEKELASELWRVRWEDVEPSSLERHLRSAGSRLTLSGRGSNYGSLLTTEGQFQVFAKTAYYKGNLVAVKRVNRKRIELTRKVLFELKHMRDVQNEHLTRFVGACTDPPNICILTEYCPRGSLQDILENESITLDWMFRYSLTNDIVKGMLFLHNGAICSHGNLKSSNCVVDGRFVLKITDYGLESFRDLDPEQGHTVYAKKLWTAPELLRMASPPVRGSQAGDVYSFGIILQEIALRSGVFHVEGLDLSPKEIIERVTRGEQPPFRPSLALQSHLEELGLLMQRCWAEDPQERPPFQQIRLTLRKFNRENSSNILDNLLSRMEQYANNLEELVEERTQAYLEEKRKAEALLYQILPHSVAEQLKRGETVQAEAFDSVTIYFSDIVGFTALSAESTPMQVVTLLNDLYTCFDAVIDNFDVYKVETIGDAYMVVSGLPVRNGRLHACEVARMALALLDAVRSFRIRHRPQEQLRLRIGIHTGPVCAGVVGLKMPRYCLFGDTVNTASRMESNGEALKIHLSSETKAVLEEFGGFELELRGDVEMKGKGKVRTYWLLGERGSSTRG
T1 sequence (peptide): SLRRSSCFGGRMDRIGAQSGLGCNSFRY
Description: (§1) All cells were washed once with 1×PBS with Ca²⁺/Mg²⁺ and counted with a Cellometer™ Auto T4 cell counter (Nexcelom Bioscience). Approximately 2.0×10⁴ HEK293/hNPR1.myc.DDK or HEK293 cells were seeded separately onto 96-well carbon electrode plates (MULTI-ARRAY high bind plate, Meso Scale Discovery (MSD, Rockville, MD)) and incubated for 1 hour (h) at 37° C. Nonspecific binding sites were blocked by 2% BSA (w/v) in 1×PBS with Ca²⁺/Mg²⁺for 1 h at room temperature (RT). HEK293/hNPR1.myc. […] The plate-bound antibodies were detected with SULFO-TAG™-conjugated goat polyclonal anti-human IgG antibody specific for heavy and light chains (Jackson Immunoresearch, West Grove, PA) for 1 h, RT.
(§2) After washes, plates were developed with Read Buffer (MSD, Rockville, MD) according to manufacturer's recommended procedure and luminescent signals were recorded with a SECTOR Imager 600 (MSD, Rockville, MD). Luminescence intensity, measured in relative light units (RLU), was recorded to indicate the binding intensity of each antibody at the range of concentrations.
(§3) In addition, direct binding signals (RLU) were analyzed as a function of the antibody concentration and data were fitted with a sigmoidal (four-parameter logistic) dose-response model using R statistical package (open source).

[2] = biological target: T2, human NPR1 on HEK293/hNPR1.myc.DDK cells (0 hANP) (human, UniProt P16066 33-1061); experiment: ECL cell binding (MSD), 0 hANP
T2 construct: Full-length receptor on engineered HEK293 cells, no ANP added; also called HEK293/hNPR1.myc.DKK
T2 sequence: T1 sequence
Description: as §1, §2, §3

[3] = biological target: T2, human NPR1 on HEK293/hNPR1.myc.DDK …; experiment: cell-based or functional assay
mNPR1-mFc [4] = biological target: T3, mNPR1-mFc (mouse); experiment: SPR Biacore, mAb captured by anti-human Fc, 25C
T3 construct: also called mouse NPR1 extracellular domain expressed with a C-terminal mouse IgG2a
T3 chain: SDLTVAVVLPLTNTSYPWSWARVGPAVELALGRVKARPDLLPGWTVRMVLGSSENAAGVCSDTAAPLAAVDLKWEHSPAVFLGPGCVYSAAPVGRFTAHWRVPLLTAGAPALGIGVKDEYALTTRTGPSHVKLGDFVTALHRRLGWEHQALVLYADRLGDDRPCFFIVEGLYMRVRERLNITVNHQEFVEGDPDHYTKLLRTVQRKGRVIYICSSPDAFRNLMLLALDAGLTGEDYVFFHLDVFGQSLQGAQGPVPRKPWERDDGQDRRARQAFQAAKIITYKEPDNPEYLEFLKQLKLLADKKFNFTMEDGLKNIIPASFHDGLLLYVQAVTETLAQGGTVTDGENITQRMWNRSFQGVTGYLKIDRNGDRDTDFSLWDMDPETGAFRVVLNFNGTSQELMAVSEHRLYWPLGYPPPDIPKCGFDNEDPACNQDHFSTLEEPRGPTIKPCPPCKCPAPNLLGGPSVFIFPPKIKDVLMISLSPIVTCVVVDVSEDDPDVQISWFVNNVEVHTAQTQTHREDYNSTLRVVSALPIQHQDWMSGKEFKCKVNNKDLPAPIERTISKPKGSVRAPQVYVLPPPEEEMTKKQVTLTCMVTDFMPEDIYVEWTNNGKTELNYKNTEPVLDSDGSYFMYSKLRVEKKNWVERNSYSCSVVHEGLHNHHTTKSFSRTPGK
Description: (§4) Equilibrium dissociation constant (KD) for different NPR1 reagents binding to purified anti-NPR1 monoclonal antibodies (mAbs) were determined using a real-time surface plasmon resonance based Biacore 4000 biosensor. All binding studies were performed in 10 mM HEPES, 150 mM NaCl, 3 mM EDTA, and 0.05% v/v Surfactant Tween-20, pH 7.4 (HBS-ET) running buffer at 25° C. and 37° C. The Biacore CM5 sensor chip surface was first derivatized by amine coupling with either mouse anti-human Fc specific mAb (GE Healthcare, #BR100839) or goat anti-human Fcy specific polyclonal antibody (Jackson ImmunoResearch Laboratories, #BR-1008-39) to capture anti-NPR1 mAbs.

mfNPR1-mFc:hBNP complex = biological target: T4, mfNPR1-mFc:hBNP complex (monkey; human, UniProt P16860 103-134); experiment: SPR Biacore, mAb captured by anti-human Fc, 37C
T4 construct: Receptor-Fc pre-complexed with 10-fold hBNP
Description: as §4

mNPR1-mFc [5] = biological target: T3, mNPR1-mFc; experiment: SPR Biacore, mAb captured by anti-human Fc, 37C
Description: as §4

B1: mAb25508 (antibody, human IgG4, V domains shown)
VH: EVQLVESGGGVVRPGGSLRLSCAASGFNVDDYGMSWVRQIPGKGLEWISGINWNGGRIYYADSMKGRITISRDNAKNSLYLQMNSLRAEDTALYHCVRDQWLVRGLDYWGQGTLVTVSS
VL: DIQMTQSPSSLSASVGDRVTITCRASQGIYNYLAWFQQKPGKAPKSLIYAASSLQSGVPSKFSGSGSGTDFTLTISSLQPEDFATYYCQQYNTYPYTFGQGTKLEIK
- EC50 [1]: 1.3 nM
- Ratio at 3.7 nM Ab concentration of Cell Binding Signal (RLU) to HEK293/hNPR1.myc.DKK relative to parental HEK293 [1]: 35 ratio
- Ratio at 3.7 nM Ab concentration of Cell Binding Signal (RLU) to HEK293/hNPR1.myc.DKK relative to parental HEK293 [2]: 18 ratio
- % Activation (vs ANP max), Expt 1 [3]: 56.1%
- EC50 (nM), calcium flux, Expt 1 [3]: 326 nM
- 100 nM Ag Bound (RU) (mNPR1-mFc [4]): -1 RU
- 100 nM Ag Bound (RU) (mfNPR1-mFc:hBNP complex): 266 RU
- Kd (mfNPR1-mFc:hBNP complex): 0.354 nM
- koff (mfNPR1-mFc:hBNP complex): 0.00015 s⁻¹
- kon (mfNPR1-mFc:hBNP complex): 423000 M⁻¹ s⁻¹
- t½ (mfNPR1-mFc:hBNP complex): 77.1 min
- 100 nM Ag Bound (RU) (mNPR1-mFc [5]): 0 RU

B2: mAb25498 (antibody, human IgG4, V domains shown)
VH: QVQLVESGGGVVQPGRSLRLSCVASGFTFSSYGMVWVRQTPGKGLEWVAVIWHDGTNNYYADSVKGRFTISRDNSKNTLYLQMNSLRAEDTAVYYCAREPWLVRGYYYYAMDVWGQGTTVTVSS
VL: not shown
- EC50 [1]: 1.8 nM
- Ratio at 3.7 nM Ab concentration of Cell Binding Signal (RLU) to HEK293/hNPR1.myc.DKK relative to parental HEK293 [1]: 49 ratio
- EC50 [2]: 4.6 nM
- Ratio at 3.7 nM Ab concentration of Cell Binding Signal (RLU) to HEK293/hNPR1.myc.DKK relative to parental HEK293 [2]: 41 ratio
- % Activation (vs ANP max), Expt 1 [3]: 67.7%
- EC50 (nM), calcium flux, Expt 1 [3]: 335 nM
- 100 nM Ag Bound (RU) (mNPR1-mFc [4]): 0 RU
- 100 nM Ag Bound (RU) (mfNPR1-mFc:hBNP complex): 113 RU
- Kd (mfNPR1-mFc:hBNP complex): 8.91 nM
- koff (mfNPR1-mFc:hBNP complex): 0.000464 s⁻¹
- kon (mfNPR1-mFc:hBNP complex): 52100 M⁻¹ s⁻¹
- t½ (mfNPR1-mFc:hBNP complex): 24.9 min
- 100 nM Ag Bound (RU) (mNPR1-mFc [5]): 0 RU
- binding result (mNPR1-mFc [5]): no binding (tested: 100 nM)

B3: mAb25479 (antibody, human IgG4, V domains shown)
VH: QVQLVQSGAEVKKPGASVKVSCKASGYTFTGYYIHWVRQAPGQGLEWMGWINPNSIGTNYAQKFQGRVTLTRDTSISTAYMELSSLRSDDTAVYYCARGGSSSYYYYYYGMDVWGQGTTVTVSS
VL: DIQMTQSPSSLSASVGDRVTITCRASQSIDNYLNWYQQKPGKAPKLLIYVASSLQSGVPSRFSGSGSGTDFTLTISSLQPEDFATYYCQQSYSTPLTFGGGTKVEIK
- EC50 [1]: 1.2 nM
- Ratio at 3.7 nM Ab concentration of Cell Binding Signal (RLU) to HEK293/hNPR1.myc.DKK relative to parental HEK293 [1]: 51 ratio
- EC50 [2]: 1.7 nM
- Ratio at 3.7 nM Ab concentration of Cell Binding Signal (RLU) to HEK293/hNPR1.myc.DKK relative to parental HEK293 [2]: 30 ratio
- % Activation (vs ANP max), Expt 1 [3]: 66.7%
- % Activation (vs. ANP max), Expt II [3]: 82.8%
- EC50 (nM), calcium flux, Expt 1 [3]: 174 nM
- EC50 (nM), calcium flux, Expt II [3]: 102 nM
- 100 nM Ag Bound (RU) (mNPR1-mFc [4]): -1 RU
- 100 nM Ag Bound (RU) (mfNPR1-mFc:hBNP complex): 135 RU
- Kd (mfNPR1-mFc:hBNP complex): 5.53 nM
- koff (mfNPR1-mFc:hBNP complex): 0.000293 s⁻¹
- kon (mfNPR1-mFc:hBNP complex): 53000 M⁻¹ s⁻¹
- t½ (mfNPR1-mFc:hBNP complex): 39.4 min
- 100 nM Ag Bound (RU) (mNPR1-mFc [5]): 2 RU
